Usually Kd stands for the constant that tells how readily two partners part at equilibrium. By IC50 is commonly meant the point on the concentration scale where inhibition reaches its midpoint. The low end stands for greater potency, the high end for weaker potency.

Our source for the Kd and IC50 values is the Immune Epitope Database (IEDB).

In one assay the target is HLA-A*02:06. Briefly: IEDB peptide-MHC binding, purified MHC/competitive/radioactivity; filed as Kd, often an IC50 or EC50 that approximates it; ≥ and ≤ were set here for values at or beyond the usual limits of such assays.
Another assay deals with HLA-A*02:02. The description is as above.
The target in a further assay is HLA-A*02:03. The assay is described as above.
A further assay deals with HLA-A*31:01. Kind of assay: IEDB peptide-MHC binding, purified MHC/direct/fluorescence; filed as Kd, often an IC50 or EC50 that approximates it; ≥ and ≤ were set here for values at or beyond the usual limits of such assays.
In assay [1] the target is HLA-A*02:01. Described as above.
In assay [2] the target is HLA-A*03:01. Described as above.
The next assay concerns the target HLA-A*69:01. Described as above.
For a further assay, the target named is HLA-A*30:01. Briefly: IEDB peptide-MHC binding, purified MHC/competitive/radioactivity; filed as Kd, often an IC50 or EC50 that approximates it; ≥ and ≤ were set here for values at or beyond the usual limits of such assays.
Another assay deals with HLA-B*08:01. The description is as above.
The next assay has as its target HLA-B*46:01. Briefly: IEDB peptide-MHC binding, purified MHC/direct/fluorescence; filed as Kd, often an IC50 or EC50 that approximates it; ≥ and ≤ were set here for values at or beyond the usual limits of such assays. To be noted: source organism: West Nile virus.
Assay [3] deals with HLA-A*02:01. Kind of assay: IEDB peptide-MHC binding, purified MHC/competitive/fluorescence; ≥ and ≤ were set here for values at or beyond the usual limits of such assays.
The target of assay [4] is HLA-A*11:01. Briefly: IEDB peptide-MHC binding, purified MHC/competitive/radioactivity; filed as Kd, often an IC50 or EC50 that approximates it; ≥ and ≤ were set here for values at or beyond the usual limits of such assays. To be noted: source organism: Dengue virus 4 Philippines/H241/1956.
For assay [5], the target named is HLA-A*03:01. The assay is described as above. The following applies: source organism: Dengue virus 4 Philippines/H241/1956.
Another assay has as its target HLA-B*15:01. Briefly: IEDB peptide-MHC binding, purified MHC/direct/fluorescence; filed as Kd, often an IC50 or EC50 that approximates it; ≥ and ≤ were set here for values at or beyond the usual limits of such assays.
The next assay has as its target HLA-B*40:01. The description is as above. To be noted: source organism: Influenza A virus (A/Hong Kong/1131/1998(H1N1)).
Assay [6] deals with HLA-A*01:01. The description is as above.
Another assay concerns the target HLA-B*58:01. The description is as above. The following applies: source organism: SARS-CoV1.
The next assay has as its target HLA-B*27:05. Described as above. The following applies: source organism: SARS-CoV1.
Assay [7] deals with HLA-A*11:01. The description is as above. To be noted: source organism: SARS-CoV1.
The target in assay [8] is HLA-A*01:01. Kind of assay: IEDB peptide-MHC binding, purified MHC/competitive/radioactivity; filed as Kd, often an IC50 or EC50 that approximates it; ≥ and ≤ were set here for values at or beyond the usual limits of such assays.
[9] abbreviates: source organism: SARS coronavirus Tor2.
[10] abbreviates: source organism: Salmonella enterica subsp. enterica serovar Typhimurium.
Where [11] appears, read: source organism: Dengue virus 2 Jamaica/1409/1983.
Where [12] appears, read: source organism: Vaccinia virus WR.
The mark [13] stands for this setting: source organism: Dengue virus 1 Brazil/97-11/1997.
Where [14] appears, read: source organism: Dengue virus 4 Philippines/H241/1956.
Setting [15] is: source organism: Zaire ebolavirus.
[16] abbreviates: source organism: Coxiella burnetii.
[17] abbreviates: source organism: Salmonella enterica.
The mark [18] stands for this setting: source organism: Sudan ebolavirus.
Setting [19] is: source organism: Dengue virus 4 Dominica/814669/1981.
Setting [20] is: source organism: Rickettsia prowazekii.
Setting [21] is: source organism: Brucella melitensis.

With KLWAQCVQL, the Kd was determined as 9.47 nM in the assay with HLA-A*02:06 (setting [9]); 12.7 nM with HLA-A*02:02 (setting [9]); 194 nM in the assay with HLA-A*02:03 (setting [9]); 304 nM in the assay with HLA-A*31:01 (source organism: SARS-CoV1); 109 nM in the assay with HLA-A*02:01 [1] (source organism: SARS-CoV1); 2.86 µM in the assay with HLA-A*03:01 [2] (source organism: SARS-CoV1).
On to KQPNRPLFI, for which the values for the Kd in the assay with HLA-A*02:01 [1] (setting [10]) and with HLA-A*69:01 (setting [10]) were 6000 nM and no less than 20000 nM, respectively.
Regarding KTNTGTIGA, in the assay with HLA-A*30:01 (setting [11]), the Kd stood at 2.94 nM.
Consider KVKFYKREL, for which the Kd in the assay with HLA-A*30:01 (setting [12]) came out at 41.9 nM.
Still for that read-out and setting: in the case of KVLDGSPIS it was 430 nM.
With KVSSKHQLV, the Kd with HLA-A*30:01 (setting [12]) turned out to be 14 nM.
LAKRFSRGLL: the Kd in the assay with HLA-B*08:01 (source organism: Dengue virus 3 Singapore/8120/1995) was determined as 1480 nM.
For LFLRRRCPL, the dissociation constant (Kd) with HLA-B*08:01 (source organism: Vaccinia virus Copenhagen) was 0.125 nM.
In the case of LLKMPFRMV, the Kd with HLA-B*08:01 (setting [12]) came out at 7.12 nM.
Sequence LLVAPAYSF had a Kd in the assay with HLA-B*46:01 of no less than 20 µM.
LSIVSLFPLC: the Kd with HLA-A*30:01 (setting [13]) is 801 nM.
As for MLIGIEILN, in the assay with HLA-A*02:01 [3] (setting [12]), the IC50 was found to be 0.554 µM. This lies in the sub-micromolar range.
Consider MLKLQKCVM, for which the Kd in the assay with HLA-B*08:01 (setting [12]) came to 9.25 nM.
In the case of MSLRSTIIK, in the assay with HLA-A*30:01 (setting [12]), the Kd turned out to be 37.2 nM.
With MTLMKGASK, the values for the Kd with HLA-A*11:01 [4], with HLA-A*03:01 [5] and in the assay with HLA-A*30:01 (setting [14]) were 143 nM, 18 nM and 1520 nM, respectively.
Sequence PLGVIHNST had an IC50 with HLA-A*02:01 [3] (setting [15]) of no less than 120 µM.
As to PTWFGISFR, the Kd in the assay with HLA-A*31:01 (setting [16]) was 209 nM; with HLA-A*03:01 [2] (setting [16]), no less than 20 µM.
For QAERTGEPDY, the Kd in the assay with HLA-A*30:01 (setting [14]) came out at 6210 nM.
QLCDEITIL: the Kd with HLA-B*15:01 (setting [10]) was 1200 nM; in the assay with HLA-A*02:01 [1] (setting [10]) it was 744 nM.
For REKIDGVKL, in the assay with HLA-B*40:01, the Kd turned out to be 46.9 nM.
In the assay with HLA-A*01:01 [6] (setting [16]), RFLTHYFTK displayed a Kd of no less than 20 µM.
For the sequence RKKARSTPF, the Kd in the assay with HLA-B*08:01 (setting [11]) is 413 nM.
Regarding RLYYDSMSY, the Kd with HLA-A*31:01 (source organism: SARS-CoV1) is 6940 nM; with HLA-B*58:01 it was 778 nM; in the assay with HLA-B*15:01 (source organism: SARS-CoV1) it was 130 nM; with HLA-B*27:05, 4.81 µM; with HLA-A*02:01 [1] (source organism: SARS-CoV1), no less than 22800 nM; in the assay with HLA-A*01:01 [6] (source organism: SARS-CoV1) it was 7.95 µM.
Consider RSQSSTIIV, for which the Kd in the assay with HLA-A*30:01 (setting [12]) stood at 559 nM.
On to RSWQPPQPR, for which the Kd in the assay with HLA-A*31:01 (setting [17]) was 35 nM; with HLA-A*03:01 [2] (setting [17]), no less than 20 µM.
Regarding RTICTLPYL, the Kd in the assay with HLA-A*30:01 (setting [12]) was determined as 0.738 nM.
Take RYRMHPMSK: the Kd in the assay with HLA-A*30:01 (setting [12]) turned out to be 0.0676 nM.
Take SFKKNGAIK: in the assay with HLA-A*30:01 (setting [13]), the Kd is 357 nM.
On to SSPGPTTEA, for which the IC50 with HLA-A*02:01 [3] (setting [18]) is 14.6 µM.
On to TSSDTYACW, for which the Kd with HLA-A*11:01 [7] is 19.4 µM; in the assay with HLA-B*58:01 it was 14.5 nM.
As for TTLTASLVML, in the assay with HLA-A*01:01 [8] (setting [19]), the Kd was 1.05 µM.
VKVLRPTPKG: the Kd with HLA-A*30:01 (setting [14]) was found to be 9230 nM.
VKVLRPTPRG: the Kd with HLA-A*30:01 (setting [19]) was found to be 6080 nM.
On the same count and under the same terms, the result for VMKRYSAPSE reads 6330 nM.
For VTAKWLWGFL, the Kd with HLA-A*01:01 [8] (setting [13]) is 17.7 µM.
Consider VVGKPYKEV, for which the Kd was found to be 1960 nM in the assay with HLA-A*02:01 [1] (setting [20]) and 605 nM with HLA-A*69:01 (setting [20]).
For the sequence WMARRHAER, the Kd with HLA-A*31:01 (setting [21]) was 13.9 nM; in the assay with HLA-A*03:01 [2] (setting [21]), no less than 20 µM.
As to YKLFLESGA, the IC50 with HLA-A*02:01 [3] (setting [15]) is no less than 209 µM.
For YVHKAQGTG, the IC50 with HLA-A*02:01 [3] (setting [18]) was no less than 236 µM.
For YVPSAEDNYL, the Kd with HLA-A*02:06 (setting [12]) was no less than 69800 nM; with HLA-A*02:02 (setting [12]), no less than 70000 nM; with HLA-A*02:03 (setting [12]) it was no less than 70400 nM.
